Among the data in the supplement of paper PMC12042874 are amyloid nucleation score values, retold here.

A short description of the data set: amyloid nucleation score (Sup35N fusion, yeast selection) (log enrichment); library NNK2; higher = more nucleation; inactive = no reads after selection. An outline of the steps:
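In psi-negative yeast, Sup35N fusions carrying peptides of 20 random codons were induced with 100 μM copper sulfate for 24 hours. The cells then grew 7 days at 30°C on medium lacking adenine and uracil, and plasmid inserts from input and output were Illumina-sequenced, excluding sequences with under 100 input reads. Nucleation score is the DiMSum log enrichment of output over input reads, centred on the mode score of non-aggregating sequences.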

± gives the uncertainty stated by the source.

YFISDEIVQSNIFSLIGWFC showed an amyloid nucleation score of 8.556 ± 0.042.
LSRSMK: the amyloid nucleation score was -0.326 ± 0.29.
Regarding GYIYVNSGYRFTKLCMVFC, the amyloid nucleation score was found to be 0.058 ± 0.79.
Take KTRHKVLRKDL: the amyloid nucleation score is -1.64 ± 0.54.
In the case of KFRDVFFPY it was -0.76 ± 0.55; in that of SKVFCTIFAWVVVE, 7.038 ± 0.033; in that of QCYIVCFICSRYTNQVKLLY, 1.38 ± 0.14.
In the case of KVKSWCTGLLGA it was 0.075 ± 0.76; in that of DCISRY, 1 ± 0.68.
In the case of CNSQVVWFFRI it was 4.69 ± 0.062; in that of YTISSIVVLDMFS, 1.41 ± 0.21.
In turn, VFCHLE returned an amyloid nucleation score of 2.43 ± 0.13.
For LLETMAK, the amyloid nucleation score entry is “inactive”.
In the case of YHVVAWSWTRSYV it was 0.561 ± 0.4; in that of LMYGKEWSMEQIVGTSTFGY, -1.36 ± 0.48; in that of YYVDVLESISSGMFLYSQLV, -1.95 ± 0.54.
Take NRTCVLSNPFPFPHNIPGVC: the amyloid nucleation score was -0.815 ± 0.54.
For the substance ICLHHDYGSGWWIIQSAWQI, the amyloid nucleation score stood at 2.95 ± 0.076.
Regarding CILGENYRIQSTDAHKGVSR, the amyloid nucleation score was -0.205 ± 0.19.
Consider RTLGHSLYPIDIYMGSDHLG, for which the amyloid nucleation score result was “inactive”.
The substance VLVFEVPFMFNGAFTMGCIR displayed an amyloid nucleation score of 7.075 ± 0.067.
Regarding FWVRNVDTLWLSPRYVTWSG, the amyloid nucleation score was -0.323 ± 0.33.
Turning to NITLRSQGIVRGQTFICLFW, the amyloid nucleation score is -0.354 ± 0.56.
Substance GHLYSISCVFNI had an amyloid nucleation score of 8.633 ± 0.044.
As for RSVRSFCVWKVELFVRSEGM, the amyloid nucleation score was 2.01 ± 0.15.
On to RFYLVIFFVTL, for which the amyloid nucleation score entry was “inactive”.
Consider LYEMVVM, for which the amyloid nucleation score stood at 0.05 ± 1.
In the case of LYDFRDSYAYVCLTGYKYLG it was 1.02 ± 0.57; in that of NLGRAQTSQ, 0.192 ± 0.65; in that of LHQGSVCWDWLPVYEVTVLG, 0.049 ± 0.44.
In turn, LIWGTPYKAW showed an amyloid nucleation score of 0.859 ± 0.41.
MVFVFKDSLIFSRSLYIMEC: the amyloid nucleation score was -1.34 ± 0.41.
In the case of YTTNIF it was -0.793 ± 0.49.
As for LQRVF, the amyloid nucleation score came out at 1.19 ± 0.47.
For CCFCFDNLIIPRDCYANSDN, the amyloid nucleation score was 6.734 ± 0.03.
In the case of FWIDYLVKFCCDLRMRMILK it was 1.64 ± 0.2.
In the case of SMRFVLAF, the amyloid nucleation score is -1.92 ± 0.77.
TLMIYCFFSGFLKGVWMM came in with an amyloid nucleation score of 0.053 ± 0.8.
In the case of FGYVVVKRPSSMLLRASRDG it was -0.619 ± 1.
Substance QSLHTSANSLLNWNFMSLLT returned an amyloid nucleation score of 0.871 ± 0.29.
For LNMPLLYDYPCYNSWDRYYS, the amyloid nucleation score was -1.5 ± 0.53.
LYQVRGTY had an amyloid nucleation score of 0.353 ± 0.22.
On to YNYWMQSLGSWVEVLSSVSV, for which the amyloid nucleation score is -0.365 ± 0.5.
With EGFHGRMCHEHGKVLKAID, the amyloid nucleation score amounted to 0.178 ± 0.24.
Take SLCMHTAVFHS: the amyloid nucleation score is 0.092 ± 0.32.
In the case of RTVYFCQN it was -1.5 ± 1.1; in that of GRTYGFSSRVVMRRGSCDFG, 0.913 ± 0.52; in that of IGSEDPRHFRSVCWSYNDTL, -0.789 ± 0.61.
As for LTYIRMQVHLVDYDRDALG, the amyloid nucleation score is -1.32 ± 0.49.
In the case of FILRHQFCLRTLIYGPSIFF it was 7.465 ± 0.045; in that of ARSRFSYKMRYPACGVISSR, -0.472 ± 0.79; in that of GTTWLTVLALVALSEISCRM, 0.384 ± 0.28.
In the case of SYFLYLGLNPVYQWYDSFVV it was 1.47 ± 0.14; in that of NNSWQINIYNGVTRLIRVRA, 4.7 ± 0.039.
In the case of LNLNR it was “inactive”; in that of CFAYSSWDTPDMMAWVCRWD, 0.154 ± 0.65.
Substance TASIDKRVTGSSREWWRSRQ yielded an amyloid nucleation score of 0.357 ± 0.66.
SSFGGGCSVCRMWGGFLLDG yielded an amyloid nucleation score of 4.4 ± 0.059.
For the substance QQLLSMLLFNFQYGCARLYC, the amyloid nucleation score is 0.072 ± 0.44.
On to HMEAFWCWFYGNVAFNRFCV, for which the amyloid nucleation score was -0.305 ± 1.
In the case of IAKGPGALYRSKMRWSGFVL it was -0.817 ± 1; in that of RNRCSSDFGSGRINVDGFNM, “inactive”.
With SGTYR, the amyloid nucleation score result was “inactive”.
Consider TGHRTRVQTELLAFIAQVN, for which the amyloid nucleation score is -0.526 ± 0.63.
For QGCMVSRNRVQHVVGSGLRW, the amyloid nucleation score was determined as 0.727 ± 0.38.
DIWPNDLGYVFVLSA: the amyloid nucleation score is -0.218 ± 0.53.
Regarding HICPFGCGYYLGEDKDAWSG, the amyloid nucleation score is -0.749 ± 0.56.
In the case of GEFLYNT it was -0.237 ± 1.
In the case of GMYGLCF it was -0.524 ± 0.64; in that of TPLLSWVTLFCCLGSPCLGT, 0.176 ± 0.76.
DLEIPFLKRKG: the amyloid nucleation score is -0.349 ± 0.6.
VVTGSMDSCGQPKVSSSSAS: the amyloid nucleation score turned out to be 0.294 ± 0.38.
In turn, TFVKRIRYCFYLS gave an amyloid nucleation score of 6.386 ± 0.023.
For RHVYWSRSPPRTYGKEWTKG, the amyloid nucleation score was found to be 0.647 ± 0.23.
The substance DETNGTGSRVRLVRRYER gave an amyloid nucleation score of 0.946 ± 0.27.
In the case of YTEQVYVYLGFLSHGASRYL it was -0.716 ± 1.1; in that of VRALRQPAT, 0.567 ± 0.27.
As for RSSLMYARIHCGEVRRNFLC, the amyloid nucleation score came out at 0.177 ± 0.62.
In the case of FLVVGGT, the amyloid nucleation score is -0.112 ± 0.21.
Turning to RFFSMVTR, the amyloid nucleation score turned out to be 0.025 ± 0.33.
For the substance PSVFEGRK, the amyloid nucleation score is -0.843 ± 0.63.
NSYFGRAFNVSMPYKLRWKF: the amyloid nucleation score was -1.41 ± 1.1.
HGYRLSHSQPKSTSSLV: the amyloid nucleation score is -0.083 ± 0.63.
In the case of CESPLSYWWRSRSLFSLCVE it was -0.359 ± 0.55; in that of SLKSAFQMKVISYLVEWLVS, -0.6 ± 0.36; in that of WALSHYVCNTYYSNHSVSNT, 5.57 ± 0.052.
SEERPKETRGGFWARVSSGG: the amyloid nucleation score is 0.228 ± 0.74.
Take VGLCVLFRWLHKTWMMEWLG: the amyloid nucleation score came to 0.426 ± 0.35.
Regarding YWTGGLHNEHLSMHVSVYSN, the amyloid nucleation score is -0.527 ± 1.1.
FSGRKPSIVLHHSSECQP: the amyloid nucleation score turned out to be 2.38 ± 0.2.
Consider NKLPDSFRSALSFY, for which the amyloid nucleation score entry is “inactive”.
In turn, CRMNDNSDWVRYAGHKAMAS registered an amyloid nucleation score of 1.2 ± 0.27.
In the case of FDLCCMKYHSYHMQFI it was -0.214 ± 1; in that of ILVSTIEGCLDYNLCFLAGL, 1.67 ± 0.12; in that of QSTWSHGFKGRSVWRGLTKG, 1.66 ± 0.36.
Take SCMLFEAAYPRVYMYWSRRF: the amyloid nucleation score was -1.91 ± 0.75.
Consider WVFNNELCNDYEHWLWARFD, for which the amyloid nucleation score was -0.295 ± 0.56.
ANFGALHRAHESVECSLY: the amyloid nucleation score result was “inactive”.
In the case of VKHTFLRKFWMHRSIESYGH it was -0.111 ± 0.38.
The substance MSNMVSSMGSRMFLIICVVS showed an amyloid nucleation score of 0.68 ± 0.4.
Regarding FFDIVIAERLTVLHVSVVSK, the amyloid nucleation score turned out to be 4.59 ± 0.074.
Consider WRYYAGWYESWSTAGQTCTF, for which the amyloid nucleation score was -0.487 ± 1.1.
Consider VGYIQGFERTYL, for which the amyloid nucleation score was -0.42 ± 0.76.
On to SNVSKYTKRGDM, for which the amyloid nucleation score is -0.184 ± 0.33.
As for VWDAEFSGPLRHEIMSGFVW, the amyloid nucleation score was determined as 0.08 ± 0.3.
Consider RRNNNFLWIDLNLMLPCYDW, for which the amyloid nucleation score is 7.75 ± 0.08.
Take IVAGFNSKWLSTDFNRTENR: the amyloid nucleation score is -0.517 ± 0.78.
The substance FASYRVY came in with an amyloid nucleation score of 0.305 ± 1.
With YGVDLSRRMV, the amyloid nucleation score stood at 0.043 ± 0.46.
In the case of VVLYCFISLLKFIEIGEGHP, the amyloid nucleation score was -1.24 ± 1.1.
As to WHDRDTITGSITIKKMH, the amyloid nucleation score was -0.702 ± 0.32.
Turning to CTHWLDPDFVL, the amyloid nucleation score was -0.666 ± 0.79.
For the substance NTSHGFQSNPRGAYERILCV, the amyloid nucleation score was -0.961 ± 0.63.
SEHLTCLWCLW had an amyloid nucleation score of 9.924 ± 0.064.
In the case of YVLGVF it was 0.045 ± 0.79; in that of KAIYPYLI, “inactive”.
LVCGLDGLVCS registered an amyloid nucleation score of 0.111 ± 0.56.
Take DGASIFSSAFIVGSGTLKQM: the amyloid nucleation score was -0.911 ± 0.78.
For the substance GVIWWPVTLCFWLCAKYIGL, the amyloid nucleation score is -0.552 ± 1.1.
In the case of FIMSSVCMIRCNITCSHQPS it was 8.21 ± 0.035.
For IMGHYVYDVVR, the amyloid nucleation score was -0.352 ± 0.36.
Consider SWNKGIHGGSTANCWFIVIK, for which the amyloid nucleation score was 0.029 ± 0.61.
Consider FAGYECIE, for which the amyloid nucleation score was -0.881 ± 0.37.
Substance ICCCFIWP came in with an amyloid nucleation score of 7.044 ± 0.044.
In the case of SAYDSTCRFISGFL it was -1.68 ± 1; in that of FPIYFFA, “inactive”.
Regarding TSRDWCLDVPWKSHYYEVKY, the amyloid nucleation score is -0.518 ± 0.48.
In the case of GCVNYNGRCEVDGRAD it was -0.227 ± 0.23.
For the substance GYMSYT, the amyloid nucleation score was -0.863 ± 0.32.
As to FWRSMTYVRF, the amyloid nucleation score was -0.526 ± 0.36.
LLPATWYLVLF: the amyloid nucleation score is -0.204 ± 0.49.
CKSSGGWNVEMWSVK: the amyloid nucleation score is -0.399 ± 0.41.
Take MIYERASSVRISFGMLRFRS: the amyloid nucleation score was -1.48 ± 1.1.
With ATKRGVHSQLCDCLRCMEFS, the amyloid nucleation score stood at 0.386 ± 0.32.
As to SRLMCNNVTSLLVFVFIGHK, the amyloid nucleation score was -0.337 ± 0.74.
Take IRMAISLFNFGFSNMFMLKE: the amyloid nucleation score is -1.94 ± 1.1.
In turn, FMCLHSARNVVMRMDVRVVL showed an amyloid nucleation score of 4.93 ± 0.078.
Consider SECMIRFVNYADGTFNIGHS, for which the amyloid nucleation score is -0.22 ± 0.37.
For MGLSWLSLLLKCRCQWACKL, the amyloid nucleation score is 0.306 ± 0.65.
On to RILQSGLGV, for which the amyloid nucleation score is 0.336 ± 0.56.
In the case of YYGQSPALDRR it was -0.238 ± 0.45.
Take PVLTYFKLQLMM: the amyloid nucleation score was determined as 2.23 ± 0.066.
